Where “and” joins values, the source holds several entries; their conditions need not be identical. Equal values may be shown once. Read-outs that look alike come from different tables or passages of the source.

Test [1] deals with MtaLon-Y224S (Meiothermus taiwanensis). The test can be described thus: cryo-EM structure; MtaLon-Y224S 1 μM (as hexamer) incubated with 5 mM ATPγS overnight.
Test [2] has the same target. The test can be described thus: cryo-EM structure; 10 μM ΔN-E613K and 5 mM ADP incubated with 1 μM MtaLon-Y224S at 4 °C for 1 h, mixture purified on Superose 6 Increase; 5+1 heteromeric complex.
Test [3] has as its target Meiothermus taiwanensis LonA, wild type, full length (Meiothermus taiwanensis). The test is described as follows: cryo-EM structure; wild-type MtaLon 1 μM (as hexamer) without any nucleotide (MtaLon-Apo).
Test [4] shares this target. Described as above. The source holds these as a separate data set.
For test [5] the target is unchanged. The test can be described thus: cryo-EM structure; wild-type MtaLon 1 μM (as hexamer) incubated with 5 mM ADP overnight; single-particle reconstruction without symmetry.
For test [6] the target is unchanged. The test is described as above. The source holds these as a separate data set.
The target in test [7] is MtaLon-Y397A/S678A (Meiothermus taiwanensis). The test can be described thus: cryo-EM structure; MtaLon-Y397A/S678A 1 μM (as hexamer) with 10 μM casein and 5 mM ATPγS, 3 h.
The target in test [8] is MtaLon-M217A (Meiothermus taiwanensis). The test is described as follows: cryo-EM structure; MtaLon-M217A 1 μM (as hexamer) with 10 μM casein and 5 mM ADP, 3 h.
The target in test [9] is MtaLon-S678A (Meiothermus taiwanensis). The test can be described thus: cryo-EM structure; MtaLon-S678A 1 μM (as hexamer) with 10 μM casein and 5 mM ADP, overnight.
Test [10] shares this target. The description is as above. The source holds these as a separate data set.
Test [11] deals with fluorescein isothiocyanate (FITC)-labeled casein (UniProt P02662). The test is described as follows: fluorescence polarisation; MtaLon samples serially diluted (5 µM to 0.01 µM) mixed with 1.25 µM FITC-casein, 1 mM ADP, 4 °C, 3 h; triplicates.
Chain of UniProt P02662 (P02662 16-214): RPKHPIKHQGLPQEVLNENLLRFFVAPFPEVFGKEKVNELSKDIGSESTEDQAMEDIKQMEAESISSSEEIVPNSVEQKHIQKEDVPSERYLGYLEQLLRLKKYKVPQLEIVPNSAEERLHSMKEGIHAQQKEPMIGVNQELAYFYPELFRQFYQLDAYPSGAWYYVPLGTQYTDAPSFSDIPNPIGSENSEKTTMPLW

As to MtaLon-Y224S (enzyme), the stoichiometry N (as a rule, a count of units in the complex or per binding partner) in test [1] was 5 and 6; in test [2] it was 5 and 6.
Consider “Meiothermus taiwanensis LonA, wild type, full length (enzyme)”, for which the stoichiometry N was 5 and 6 in [3]; 3 and 4 in test [4]; 3 and 4 in test [5]; 5 and 6 in [6].
Take MtaLon-Y397A/S678A (enzyme): the stoichiometry N in test [7] is 5 and 6.
Regarding MtaLon-M217A (enzyme), the stoichiometry N in test [8] is 5 and 6.
Take MtaLon-S678A (enzyme): the stoichiometry N in [9] came to 6; in test [10] it was 5. Also, the Kd – broadly, the free concentration of one partner at which half of the binding sites on the other are occupied at equilibrium, for simple one-to-one binding – in test [11] worked out at 1.38 µM.

The values are drawn from publication PMC10643698.
